Reference: article PMC3352088, “Structure and function of the transketolase from Mycobacterium tuberculosis and comparison with the human enzyme” (Open Biology, 2012)

B1: transketolase from Mycobacterium tuberculosis (TBTKT) (enzyme)
chain: MTTLEEISALTRPRHPDYWTEIDSAAVDTIRVLAADAVQKVGNGHPGTAMSLAPLAYTLFQRTMRHDPSDTHWLGRDRFVLSAGHSSLTLYIQLYLGGFGLELSDIESLRTWGSKTPGHPEFRHTPGVEITTGPLGQGLASAVGMAMASRYERGLFDPDAEPGASPFDHYIYVIASDGDIEEGVTSEASSLAAVQQLGNLIVFYDRNQISIEDDTNIALCEDTAARYRAYGWHVQEVEGGENVVGIEEAIANAQAVTDRPSFIALRTVIGYPAPNLMDTGKAHGAALGDDEVAAVKKIVGFDPDKTFQVREDVLTHTRGLVARGKQAHERWQLEFDAWARREPERKALLDRLLAQKLPDGWDADLPHWEPGSKALATRAASGAVLSALGPKLPELWGGSADLAGSNNTTIKGADSFGPPSISTKEYTAHWYGRTLHFGVREHAMGAILSGIVLHGPTRAYGGTFLQFSDYMRPAVRLAALMDIDTIYVWTHDSIGLGEDGPTHQPIEHLSALRAIPRLSVVRPADANETAYAWRTILARRNGSGPVGLILTRQGVPVLDGTDAEGVARGGYVLSDAGGLQPGEEPDVILIATGSEVQLAVAAQTLLADNDILARVVSMPCLEWFEAQPYEYRDAVLPPTVSARVAVEAGVAQCWHQLVGDTGEIVSIEHYGESADHKTLFREYGFTAEAVAAAAERALDN
notes: also called Rv1449; rv1449c gene product

Assays:
[1] = system: O=C(CO)[C@@H](O)[C@H](O)COP(=O)(O)O; assay: purified protein; conditions: TPP, Mg2+ donor substrate; substrate cleft
[2] = system: O=C[C@H](O)[C@H](O)[C@H](O)COP(=O)(O)O; assay: purified protein; conditions: TPP, Mg2+ acceptor substrate; substrate cleft
[3] = system: O=C(CO)[C@@H](O)[C@H](O)[C@H](O)COP(=O)(O)O; assay: purified protein; conditions: TPP, Mg2+ donor substrate; substrate cleft
[4] = molecular target: the molecule itself; assay: crystal structure; TBTKT with TPP and Mg2+, space group P1, four molecules (two dimers) in the asymmetric unit, 2.5 Å; crystals from 0.1 M ammonium acetate, 0.1 M bis-tris pH 5.5, 17% w/v PEG 10 000, 22°C

Molecule	Km [1]	Km [2]	Km [3]	stoichiometry N [4]
transketolase (TBTKT) (Mycobacterium tuberculosis H37Rv)	350 ± 120 µM	820 ± 120 µM	630 ± 90 µM	–
B1	–	–	–	2
